Experimental data reported in patent US20090104196.

Molecular target: AR co-purified in the TAP-LSD1/AR complex (UniProt P10275)
Sequence (P10275 whole entry, one chain of several): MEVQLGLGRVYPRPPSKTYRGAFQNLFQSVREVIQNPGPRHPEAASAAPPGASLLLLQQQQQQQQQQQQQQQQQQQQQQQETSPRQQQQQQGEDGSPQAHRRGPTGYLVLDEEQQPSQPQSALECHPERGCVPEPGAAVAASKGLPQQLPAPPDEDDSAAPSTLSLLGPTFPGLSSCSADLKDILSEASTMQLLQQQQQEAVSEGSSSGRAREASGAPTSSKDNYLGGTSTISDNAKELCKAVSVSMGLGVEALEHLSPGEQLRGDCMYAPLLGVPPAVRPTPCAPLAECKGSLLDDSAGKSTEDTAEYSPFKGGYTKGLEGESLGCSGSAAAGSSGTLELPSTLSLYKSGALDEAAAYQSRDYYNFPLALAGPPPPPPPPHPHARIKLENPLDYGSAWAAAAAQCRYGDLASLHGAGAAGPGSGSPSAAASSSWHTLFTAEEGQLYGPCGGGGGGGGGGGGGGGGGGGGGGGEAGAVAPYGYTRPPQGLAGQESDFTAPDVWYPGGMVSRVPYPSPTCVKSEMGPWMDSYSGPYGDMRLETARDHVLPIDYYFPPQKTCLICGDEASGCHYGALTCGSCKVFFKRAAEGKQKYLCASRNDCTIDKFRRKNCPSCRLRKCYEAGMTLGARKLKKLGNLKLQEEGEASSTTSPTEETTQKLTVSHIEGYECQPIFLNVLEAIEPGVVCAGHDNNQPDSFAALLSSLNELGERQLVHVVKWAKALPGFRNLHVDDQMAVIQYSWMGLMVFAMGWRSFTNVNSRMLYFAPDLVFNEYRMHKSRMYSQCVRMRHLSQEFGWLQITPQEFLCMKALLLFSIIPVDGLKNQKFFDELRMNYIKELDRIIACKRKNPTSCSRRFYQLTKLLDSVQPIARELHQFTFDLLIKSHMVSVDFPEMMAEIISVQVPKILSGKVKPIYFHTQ

Q: With “TAP-LSD1 (LSD1 with N-terminal TAP tag), tandem affinity purified” as the substance, how does the “demethylation of dimethyl H3-K9 on HeLa nucleosomes in vitro (Western blot)” value read?
A: The value was “The TAP-LSD1/AR complex demethylated dimethyl H3-K9 in vitro, whereas TAP-LSD1 or the TAP control failed to do so”.
